Assay results as given in US20230226096A1 (Orna Therapeutics, Inc., priority 2020, published 2023).

B1: EV F1 BEV 261 (nucleic acid, listed as Enterovirus sp.)
DNA: GCAATGCTGCACCAGTGCACTGGTACGCTAGTACCTTTTCACGGAGTAGATGGTATCCCTTACCCCGGAACCTAGAAGATTGCACACAAACCGACCAATAGGCGCACCGCATCCAGCCGTGCAGCGGTCAAGCACTTCTGTCTCCCCGGTCTGTAAAGATCGTTATCCGCCCGACCCACTACGAAAAGCCTAGTAACTGGCCAAGTGAACGCGAAGTTGCGCTCCGCCACAACCCCAGTGGTAGCTCTGGAAGATGGGGCTCGCACCACCCCCGTGGTAACACGGTTGCCTGCCCGCGTGTGCTTCCGGGTTCGGTCTCGTGCCGTTCACTTCAACTTCACGCAACCAGCCAAGAGCCTATTGTGCTGGGACGGTTTTCCTCCGGGGCCGTGAATGCTGCTAATCCCAACCTCCGAGCGTGTGCGCACAATCCAGTGTTGCTACGTCGTAACGCGTAAGTTGGAGGCGGAACAGACTACTTTCGGTACCCCGTGTTTCCTCTCATTTTATTTAATATTTTATGGTGACAATTGTTGAGATTTGCGCTCTTGCAACGTTGCCATTGAATATTGGCTTATACTATTTGGTTGCCTTTTACAAAACCTCTGATATACCCAGTTCTTACATTGATCTGCTTGTTTTTCTCAATTTGAAGTATAGACTACAAATAGCAAA
B2: EV 30 (nucleic acid, listed as Enterovirus sp.)
DNA: AAGCAAGGCAAACCTGACCAATAGTAGGTGTGGCACACCAGCCGCATTTTGGTCAAGCACTTCTGTTTCCCCGGACCGAGTATCAATAAGCTGCTCACGCGGCTGAAGGAGAAACCGTTCGTTACCCGACCAGCTACTTCGAGAAACCTAGTAACACTATGAACGTTGCGGAGTGTTTCGTTCAGCACTTCCCCCGTGTAGATCAGGTCGATGAGTCACCGCATTCCTCACGGGTGACCGTGGCGGTGGCTGCGTTGGCGGCCTGCCTACGGGTTCGCCCGTAGGACGCTCTAATACCGACATGGTGTGAAGAGTCCATTGAGCTAGCTGGTAGTCCTCCGGCCCCTGAATGCGGCTAATCCTAACTGCGGAGCAGGTGCTCACAGACCAGTGAGTAGCCTGTCGTAACGGGCAACTCTGCAGCGGAACCGACTACTTTGGGTGTTTTTCCTTTTTTCTTCTCTTATATTGGCTGCTTATGGTGACAATTAAAGAATTGTTACCATATAGCTATTGGATTGGCCATCCGGTGACGAGCAGAGCCATTGTTTACCTCTTTGTTGGATTTGTACCTTTGAACCACAAAGTCTTGAATACCATTCATCTCATTTTAAAGTTCAACTCAGCTAAAAGAAA
B3: EV J N125 (nucleic acid, listed as Enterovirus sp.)
DNA: CGGTACCTTTGTACGCCTATTTTACCCCCTTCCCCTTGTAACTTAGAAGCAAAGCAAACCAGTTCAATAGTAAGCAACACAACCCAGTGTTGTGACGAACAAGTACTTCTGTTTCCCCGGGAGGGTCTGACGGTAAGCTGTACCCACGGCTGAAGTATGACCTACCGTTAACCGGCTACCTACTTCGAGAAGTCTAGTAATACCATTGAAGTTTTGTTGGCGTTACGCTCAACACACTACCCCGTGTGTAGTTTTGGCTGATGAGTCACGGCATTCCCCACGGGCGACCGTGGCCGTGGCTGCGTTGCGGCCAACCAAGGGGCGCAAGCTCCTTGGACGTCACTTAACAGACATGGTGTGAAGAACCTATTGAGCTAGGTAGTAGTCCTCCGGCCCCTGAATGCGGCTAATCCTAACTCCGGAGCACATCAGTGCAACCCAGCATTTGGTGTGTTGTAATACGCAAGTCTGGAGCGGAACCGACTACTTTGGGTGTCCGTGTTTCCTGTTTTACCTTATTTGGCTGCTTATGGTGACAATTTGATATTGTTACCATATAGCTGTTGGATTGGCCATCCGGATTTTTGAAAGAGACCCAAAACTTTCTTCTCTACTTCAGATTCAAGTGCGAAGTTTTCCTTTTCATATATTACTTACTAATTTGAAGTACCAAAG
B4: EV J 1631 (nucleic acid, listed as Enterovirus sp.)
DNA: CACCCTGAGGGCCCACGTGGCGTAGTACTCTGGTATCAAGGTACCTTTGTACGCCTATTTTATTTCCCTTCCCCCACAGTAACTTAGAAGCTTATCTCATAGTTCAACAGTAGGGTCACTAACCAAGTGGCTCAGCGAACAAGCACTTCTGTTTCCCCGGTCCTAGTACCTGTGAAGCTGTACCCACGGCGGAAGGGGAAAAAGATCGTTATCCGGCCCCCTACTTCGGAAAGCCTAGTAACACCATTGAAGCAATCGAGTGTTGCGCTCAGCACAGTAACCCCTGTGTAGCTTTGGTTGATGAGTCTGGGCACTCCCCACTGGCGACAGCGGCCCAGGCTGCGTTGGCGGCCAACCGACTCGGGCAACCGGGTCGGACGCTCGTTTGTGGACATGGTGTGAAGAGCCTACTGAGCTAGAGGGTAGTCCTCCGGCCCCTGAATGCGGATAATCCTAACCCCGGAGCACCCACACTCAATCCAGAGTGCAGGATGTCGTAACGCGTAAGTCTGGGACGGAACCGACTACTTTGGGTGTCCGTGTTTCCTGTTTTACTTACTTTGGCTGCTTATGGTGACAATCTAGTGTTGTTACCATATAGCTATTGGATTGGCCATCCGGTGTTTTGAATTGTGTGTTTATACTAATTCTTTTACATATCACAGACAACCAAAT
B5: EV I (nucleic acid)
DNA: TTAGTACTTTCTCACGGGGATAGTGGTATCCCTCCCTAGTAATTTAGAAGACTTGAAAAACCGACCAATAGGCACCTCGCATCCAGCGGGGTAAAGGTCAAGCACTTCTGTTTCCCCGGGTCGAGTAGCGATAGACTGTGCCCACGGTCGAAGGTGAAACAACCCGTTATCCGACTTTGTACTTCGGGAAGCCTAGTACCACCAAAGATTATGCTTGGGGTTTCGCTCAGCACGACCCTGGTGTAGATCAGGCCGATGGATCACCGCATTCCTCACAGGCGACTGTGGCGGTGGTCGCGTGGCAGCCTGCCGATGGGGCAACCCATCGGACGCCAAGCATATGACAGGGTGTGAAGAGCCTACTGAGCTACAAAGTATTCCTCCGGCCCCTGAATGCGGCTAATCCCAACCACGGAGCATTTGCTACCAAACCAGGTAGTGGAATGTCGTAACGGGTAACTCTGTGGCGGAACCGACTACTTTGGGTGTCCGTGTTTCCTTTTAATTTATCATTCTGTATATGGTGACAACTATAGTGCTATCTCGATTTGCATTACTATTGTTGAGATTAAAACTTTATTACATTGTTGCATTTTACCCTTTGAGTGAGTTTTCACCTGAACAGATTAATTTACTCATCCTGTTTATATATTACAAGCAGAAATACTTGCAAAG
modifications: Enterovirus I
B6: EV D94 (nucleic acid, listed as Enterovirus sp.)
DNA: CGTGGCGGCCAGTACTCTGGTATCACGGTACCTTTGTACGCCTGTTTTATATCCCCTTCCCCCGCAACTTAGAAGAAAACAAATCAAGTTCACTAGGAGGGGGTACAAACCAGTACCACCACGAACAAGCACTTCTGTTTCCCCGGTGATGTCGTATAGACTGTAACCACGGTTGAAAACGATTGATCCGTTATCCGCTCTTGTACTTCGAAAAGCCCAGTATCACCTTGGAATCTTCGATGCGTTGCGCTCAGCACTCAACCCCAGAGTGTAGCTTAGGTCGATGAGTCTGGACACTCCTCACCGGCGACGGTGGTCCAGGCTGCGTTGGCGGCCTACCTGTGGTCCAAAGCCACAGGACGCTAGTTGTGAACAAGGTGTGAAGAGCCTATTGAGCTACAAGAGAATCCTCCGGCCCCTGAATGCGGCTAATCCTAACCACGGAGCAAGGGTACACAAACCAGTGTATATCTTGTCGTAACGCGCAAGTCTGTGGCGGAACCGACTACTTTGGGTGTCCGTGTTTCCTTTTGTTTTTATCATGGCTGCTTATGGTGACAATCTAAGATTGTTATCATATAGCTGTTGGATTGGCCATCCGGTAATTTATTGAGATTTGAGCATTTGCTTGTTTCTTCAACAATTTCACCTATTCATTGCATTTCAGCAGTCAAA
B7: EV C102 (nucleic acid, listed as Enterovirus sp.)
DNA: CTTTGTACGCCTGTTTTACATCCCCTCCCCCACGTAACTTTAGAAGCAATTCAACAAGTTCAATAGAGGGGGTACAAACCAGTATCACCACGAACAAGCACTTCTGTTTCCCCGGTGATTTTACATAAGCTGTGCCCACGGCTGAAAGTGAATGATCCGTTACCCGCTCGAGTACTTCGAAAAGCCTAGTATCGCTTTGGGATCTTCGACGCGTTGCGCTCAGCACTCTACCCCGAGTGTAGCTTAGGCTGATGAGTCTGGGCATTCCCCATCGGCGACGATGGCCCAGGCTGCGTTGGCGGCCTACCCATGGCTAACGCCATGGGACGCTAGTTGTGAACAAGGTGTGAAGAGCCTATTGAGCTACTCGAGAGTCCTCCGGCCCCTGAATGCGGCTAATCCCAACCACGGATCAGGTGCCTCCAACCCAGGAGGTGGCCTGTCGTAACGCGCAAGTCTGTGGCGGAACCGACTACTTTGGGTGTCCGTGTTTCCTTTTATCTTTTAAATGGCTGCTTATGGTGACAATCATAGATTGTTATCATAAAGCGAATTGGATTGGCCATCCGGTGAAATACAAACACATTATTTACTTGTTTGTTGGATTTACTCCGCTCACACAGCTTACTCCTAAGATAATATTTATTGTATTGCTGGTAAGGAGACACTATTATA
B8: SA5 (nucleic acid)
DNA: AGTACTTGGTATTCCGGTACCTTTGTACACCTATTTACAAACCCTACCCCTTGTAACCTTAGAAGCAATTATTTAACCGCTCACTAGGGGGTGTGCTATCCAAGCACATCAAGAGCAAGCACTTCTGTCTCCCCGGGAGGGGCTAATGGTACGCTGTGCCCACGGCGGAAATGAGCCCTACCGTTAACCGGCAGTCTACTTCGGGAAGCCCAGTAACTACATTGAAACTTTGAGGCGTTACACTCAGCACATAACCCCAATGTGTAGTTCTGGTCGATGAGCCTTGGCATCCCCCACAGGCGACTGTGGCCAAGGCTGCGTTGGCGGCCAGCCTGCGGACCAAAAGTCCGTAGGACGCCTAATTGTGGACATGGTGTGAAGAGCCTACTGAGCTAGACTGTAGTCCTCCGGCCCCTGAATGCGGCTAATCCTAACCCTGGAGCATCCGCGTGCAACCCAGTACGTAGGGTGTCGTAATGCGTAAGTCTGGGATGGAACCGACTACTTTGGGTGTCCGTGTTTCTTGTTTTTCATACTGGGTCGCTTATGGTTACAACTAATTGTTGTAATCATTGGCAGTGCGCGCTGACCACGCGATTATTGATATTTCCATTTGTTGGATACTCCAATAGTGTCAACTCATATACACAACTTTTACCACTGATCAAGATAAAA

tested on: HEK293 cells; format: cell-based, human; details: luminescence from secreted Gluc in supernatant 24 hours after transfection of HEK293 cells; circular RNA encoding Gluc with the named IRES (UTR truncated to 675 nt)

**Q.** For B1, which Expression is on record?
**A.** 1.12E+07

**Q.** B2 was tested. Which Expression did it give?
**A.** 5.48E+06

**Q.** For B3, which Expression is on record?
**A.** 2.90E+07

**Q.** How did the Expression turn out when B4 was run?
**A.** 9.88E+07

**Q.** B5 was tested. Which Expression did it give?
**A.** 1.31E+08

**Q.** B6 was tested. Which Expression did it give?
**A.** 9.25E+07

**Q.** For B7, which Expression is on record?
**A.** 8.85E+07

**Q.** How did the Expression turn out when B8 was run?
**A.** 1.61E+08
